Data taken from a protein production outcome set (Wang et al. 2014).

Test: label from the status in PepcDB records
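Also: failed if final PepcDB status was selected cloned or expressed and not failed if soluble or beyond.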

| Sequence | protein production |
| --- | --- |
| KREHAKQHGMIRTEITGAEIAEEMEKERRLFQLQMCEYLIKVNEIKTKKGVDLLQNLIKYYHAQCNFFQDGLKTADKLKQYIEKLAADLYNIKQTQDEEKKQLTALRDLIKSSLQLDQKESRRDSQSRQGGYSMHQLQGNKEYGSEKKGYLLKKSDGIRKVWQRRKCSVKNGILTISHATSNRQPAKLNLLTCQVKPNAEDKKSFDLISHNRTYHFQAEDEQDYVAWISVLTNSKEEALTMAFRGEQSAGENSLEDLTKAIIEDVQRLPGNDICCDCGSSEPTWLSTNLGILTCIECSGIHREMGVHISRIQSLELDKLGTSELLLAKNVGNNSFNDIMEANLPSPSPKPTPSSDMTVRKEYITAKYVDHRFSRKTCSTSSAKLNELLEAIKSRDLLALIQVYAEGVELMEPLLEPGQELGETALHLAVRTADQTSLHLVDFLVQNCGNLDKQTALGNTVLHYCSMYSKPECLKLLLRSKPTVDIVNQAGETALDIAKRLKATQCEDLLSQAKSGKFNPHVHVEYEWNLRQEEIDESDDDLDDKPSPIKKERSPRPQSFCHSSSISPQDKLALPGFSTPRDKQRLSYGAFTNQIFVSTSTDSPTSPTTEAPPLPPRNAGKGPTGPPSTLPLSTQTSSGSSTLSKKRPPPPPPGHKRTLSDPPSPLPHGPPNKGAVPWGNDGGPSSSSKTTNKFEGLSQQSSTSSAKTALGPRVLPKLPQKVALRKTDHLSLDKATIPPEIFQKSSQLAELPQKPPPGDLPPKPTELAPKPQIGDLPPKPGELPPKPQLGDLPPKPQLSDLPPKPQMKDLPPKPQLGDLLAKSQTGDVSPKAQQPSEVTLKSHPLDLSPNVQSRDAIQKQASEDSNDLTPTLPETPVPLPRKINTGKNKVRRVKTIYDCQADNDDELTFIEGEVIIVTGEEDQEWWIGHIEGQPERKGVFPVSFVHILSD | not failed |
| MPTVLRWTRTMCKRPTCRVRQAWLVLPITGRWPSGGVSMKHACMLDSALPKPSQHSLRRQLNAIKREQFPWMSEVTKNAPQMAIIQLGRAFQNFFAGRAKYPKFRKKGMHDRFTLTNDQFDLEASRIRIPRLGWVRMRETLRFAGKIMLATVSRVAGRWFVSITVDVPDPSHLPQAENQGTVGVDLGVLVLATLSTGETVCGPRPHRALLGRVCRLSRSVLRKVKGSANRHKAKATLANLHARIAAIRLDALHTLTSDLTRRFHTIGIENLNVKGMLRNRHLARSIADIGFFEFRRQLEYKAMMRGGQVVVANRFFASSKRCLTCGHTLNELPLSVRQWACPACGARHDRDVNAAVNLKNMAVSSTVSACGEEGAGPRRKTAVGEAGSQLLEHHHHHH | failed |
| MSRASVTIGARRNGAIKAAAHARIRPVANSSCLAISRQMQHRYTMFEPKPQNPALAAALIFAATAFIAGTTLLAKALGTGALGPALPALQISHGRFLFALAVILSIVAATRPRLSRPHWGLHLGRTSFGWAGVTLMFAAVAYIPMADATAIAFLNPVFGMLLAIPLLGERVGPWRWGAAVIALVGALILLRPTPGSFQPAALLALAAAAVMGMELIFIKKLAGRERPIQILLVNNAMGLAIASLAVWPVWQAPLPAQWAALAGIGLLMACAQICFVNGMARADASFVAPFSYGTLVFAALYDLAVFQVWPDAISLGGAAIILTGALTLAWREGRVRRP | failed |
| MKSARPRLSDAHGRRNCARRGRRPGHQPFWRLAMNIVRYPQFSTHALQNEIKHVFDRFFEHNSDTDESAVVTAQWVPRVDIKEEPKHFVLYADLPGIDPSQIEVQMDKGILSIKGERKSESSTETERFSRIERRYGSFHRRFALPDSADADGITASGHNGVLEIRIPKRPAATPRRIHVGNGQDTSDSTVQ | failed |
| MAAKSLVDIAYESDSSSDSSDEGDVPCLPKDEVNERKLQNLQRKAFYNLLQTFAFENSTMSNKRTEIIGKLMNEWGIANETHISFADQIQKKLLTLKQTKHSGVKETQIPATPLTNTATPSTFFVPKPVKSWGSVNPESLIGKWVSIRLPDKAKFTEYIIKAYDAEKEMHSLLTETSNPMEVDCIDPFRWIDIRDISPNDIMWEGGQKPNFAAPNQSAAATGQ | failed |
| MSLFTCEDPAVWKAVHNKYWTVVEAKSAGKRKTSGKLLQLDKWFQEDLPAAITARPERFLTHAELVKIMEWKLTKGKFRPRLQQLIGSNNEEAVQSSSSKAFSLLPDVQAAIKELCKLKGVGSATASAVLVAGAPDKVAFMADEAVESIAELRPVEYTDKHYALYLQKMLWKTSELNKVDAQQDWTPHRVEQCLWTWTVANQIQPSLLQGVSLKDATNQKPEKRKTADEKPSKRKKTE | failed |
| MRDLLNDLSEGLSHPDPILRAQIQMQKPLPKRFYKDVTVADVEEGGFTILLDGKPLRTPAKKPLVAPSRALADLLRDEWDAQKEVVNPVVMPVSRHVNTAIDGIASDTQAVFEDILRFSSSDLLCYRAGDPEALVARQTDYWDPVLDWATNVLGARFILVEGVMHRDQPREAIAAFAVTLKKYDTPIALAALHTMTSLTGSAILALALAEGELTLEEAWALAHLDEDWTAEQWGEDEEALERRAVRLIDMRAALNVLESLKSASLEHHHHHH | failed |
| MLDLNPNQSYIIRINKKGGINMHWLADLLAAIGVVLNGIPQGIMAMSLGFAVFPTAFSFGLVGLINGVASSVAPVSFQAESLALVGHLGHDLRERSSIIFLGASLMFVIGLTGTLPLIVHSLGNQLMAAMMAGVGLMLAKIALQMAHEQPQFGWLSIGLAGVTYLISKDLVWTIAVSVIGTSCYAATTHYRVALPEHVTTRKLQFVRPQFSFKILRGALSLACLNIGANLSYGLITGQMTGQHPNPVNLNLLTSSQALADLGTSLLGGAPVETIISATASAPEPVIAGILMMLIMMLILLLGWLPKLGKVVPSTAIAGFLFILGTIVIFPENATTALHGSLSTVAGVTLVVTALVDPFAGLMTGALLKFGLPLIGLGL | failed |
| MDSPIINEQFWDALFFNGTMPWDRSQTPNELKHYLKRIADKTHSVFIPGCGAAYEVSHFVDCGHDVIAMDYSAEAVNLAKSQLGQHQDKVMLGDVFNADFSREFDVIYERAFLAALPREIWGDYFAMIERLLPSNGLLVGYFVISDDYRSRFPPFCLRSGEIEQKLEANFHLIESTPVTDSVDVFKGKEQWMVWQKLEHHHHHH | failed |
| MSVFSGFPASPPDAILNLTVLYNADTNPKKVNLGVGAYRDESGKPWILPAVKEAEAIISSDLSKYNKEYPPVAGFPLFLEAAQFLMFGKDSKAAQEGRIASCQSLSGTGSLHIGFEFLHLWMPKAEFYMPSTTWPNHYGIYDKVFNKLKVPYKEYTYLRKDGELEIDFSNTKKDIQSAPEKSIFLFHACAHNPSGIDFTEAQWKELLPIMKEKKHIAFFDSAYQGFATGSFEADAFAVRMFVDAGVEVLVAQSFSKNFGLYGERIGCLHVVHAGVEGSVEKNKALSAAMVSGMTLQIRKTWSMSAIHGAYIVQVIVHDKRLLQMFYDNVKEMSARIHRMRSLLHASLAKRKTPGPGSKGTWDHILTAIGMFTFTGLTPEHVDYLKEKWSIYLVKAGGRMSMCGLTESNCDYVAEAIHDAVTKLPFKK | not failed |
| MSFRAFLPAAMLVTVAGFWLGASTPGVAQYCEGTVHGLSGRYNLATGSGFLAVRTRPNSSSRMIGQLFNGDHVEIFDRRGNWYQVEIGGSTGWANARWLRNDCRY | failed |
| TGNVCIEEIDVDGKFIRLKNTSEQDQPMGGWEMIRKIGDTSVSYKYTSRYVLKAGQTVTIWAANAGVTASPPTDLIWKNQNSWGTGEDVKVILKNSQGEEVAQRSTVFKTTIP | failed |
| MGGIYRLSLKSTEATAERLSCDTRCNYEDRDLAYSPDGRWLAIARRFSNISEDIFIRDLASAHEKRLTQGLEDIRGLSWTPDSQALVFATEDSGSSNGFTLDINTAQIRSLDVEGMSYPSSVSAEGELVYHQYHRQFQMAYFSLGDKVPGSLFPLLYSGVSHRNPDYSPEAKRIVFVSSETG | failed |
| DETQVLATVTQELANLFQLESCYIELYNTDCTAVSVVCEYAANQPTYQGLTRQIADFSEIYQPLLQKQHFQTIEIVPGWHPQLLVITQLACPIFDAQGMLGNLWLIRPIQQMLSQSEICLVQTLANLCAIAIRQAKLDATNQARLKKLEQRESLTNKFLRKLSQELRTPITSISLAAQTLETVLSPTI | failed |
| MENEKIWIKELKEKRLAYGVSQNKLAVASHITRPYLSDIETGKAVPTQQVKEDLLNALERFNPDNPLEMLFDYVRIRFPTNDVAQIIGEVLRLNMDYMLHEDFGYYSYPEHYRFGDIVVLVSHDVSKGVLLELKGKGCRQFENFLLAQHRSWYDFFQDCMEHKGIFKRLDLAINDKTGILNIPDLAKKCKQEECISVFRSFKNYRSGELVHRDEKPYMGNTLYIGSLKSEVYFCIYEKDYEQYVKNDVPLEDAEVKNRFEIRLKNDRATQAMKDLLAHQQAEKTAFEIINRYIRFADKDDTKRRSDWKTNERWEWFIGKNRGALRLTTQPEPYSFERTLNWLHHQVAPTLKIASILDVLNGTTIISTMIQEAKLTEKHEKLIEQQHLAMEDLIT | not failed |
| MIGFIGSVFSPWYRWSGRKEPQNHCCLNVATYGPGGRFTMTDRGRAALRQSPDTLTVGPSRMHWTGTQLIVEVNEISSPPLVSPVKGRIVLTPTGITDVEVTLKDDGSHIWRPFAPTARIEVDLTQGHRWHGHGYFDANFGTAALEADFRFWTWGRYPVADGAACFYDATRRDGSRLELGLHVAADGRARLIQPPPEARFARSRWLVERHTPADPGTRPRQVMSMLDAPFYSRAMVETTVFGQKTVGVHEALDLRRFRSPLLMPMLAVRVPRRP | failed |
| MRGYVLGLLALNLLTLIWGTTFVVVKGAVEGMAPSLLILLRFGVAALFFLPWLFRLPVGVFGPGMELAFWLFVGYASQTLGLAHTSASRSAFITALSVVLVPLLLRLAGREVGPAFLAAFLALAGVGLLSYDPYQPPFNVGDLWTFLTALAYALYIVRLEVHARAFPSLPLTAVQVLGTALFALPWVLAEGGAWGPVAWGAVLYLGVVATALTTWLQTWGQRHVPAPQAAILYTLEPVWAAFFAYLALGERLSPSGLLGALLVLLATLLAIRRSPA | failed |
| TFDNLNSMNGKGSSTDGINYVFDSLMSSSLDEPGVMYPLLAKTATFDPEQTHFVIFELNPKARFSDGTPVTAQDVKFSFDTYQSKANPGLQMYISDLAKTEVLSKYRVKFSFKSQNNAEMPLILASLPIYSQKDWKNRDFTRVTLQPILGSGPYLIERIDPS | failed |
| IGIWFTGTDGRYHFVNKTFCNLVGIEEEDMLNTPSSNLAELLGSEIAHNCLDSDRAALGQDLAHVSYETIPRLNAKPYLLEITKVKLKNTR | failed |
| MKLKILLLTILTLGAMTVHAQKITGDWKGMLSIPQANMELELIFHITGEGADLSTTMDVPAQGATGIPVEKTSFADGKLTLSAAALQFTFKGTLSGNTIEGNVEQMGFSLPLTLQRFESKLPGNTALPSTEEELKALAALDKGNYKYKVEDYFAKPKASAFQLSPNGKYLSYMEKDDAGKRHVYVKEIATGTVKRAIEEKDELIKGYGWINDERLFFVMDKGGNENYHLFASNIDGSNTRDLTPFDGVKASILNMLKEQKDYMIISMNKNNPQIFEPYKLNVVTGELTQLYENKDAANPIQGYEFDKDGELRGYSRLVNGIESELYYKDLATGEFRLLKKTHWDDTFGVIAFNYASKNKDEAYVLTNLDSDKTRIVLYDLKQNKIIREIFANEDYDVSGLHLSRKRNYEIDLMAYEGEKSVVVPVSATYKELHKLMEKEFKGKEFSVVDYDDDETILLIAVQSDKLYGTYYQFDTRTKKFTLLYDLMPQLKEEDMAEMRPIKFKSRDGLTIHGFITLPKAALEGKKVPLIVNPHGGPQGIRDSWGFNPETQLFASRGYATLQVNFRISGGYGKEFLRAGFKQIGRKAMDDVEDGVRYAISQGWVDPDRIAIYGASHGGYATLMGLVKTPDLYACGVDYVGVSNIYTFFDSFPEYWKPFKEMVKEIWYDLDNPEEAAIAKEVSPFFQIDKINKPLFVVQGANDPRVNINESDQIVTALRARGFEVPYMVKYNEGHGFHREENSMELYRAMLGFFAKHLKK | failed |
| MSDCSFIIVGGGGHARVVASTLRRLGETILGFTDPDEEATLGDGIEHLGRDKILTEKDPSKVALTMGMGSVRDTGHRAGLFTEQVENGFRFPTLIHPDAVLASEAKTKAGVQVMAGGVIQPGASLGENVIVNTNASVDHDCQIGAHSHVASGATLSGEVVLESQVHVGTGASIIQGVDVGKNSVVGAGAVVIEDVPPETVVIGVPAHPK | failed |
